# Measurements: the supplement of paper PMC12764529
# ± gives the half width of the 95% confidence interval.
# Legend:
# [1] = folding stability dG unfold (combined trypsin and chymotrypsin); higher = more stable
# Outline: (§1)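 Bayesian fitting of sequencing counts gave K50 for each design. Unfolding free energy followed by setting this against a sequence-predicted unfolded-state K50 and a shared folded-state K50, either per protease or with trypsin and chymotrypsin combined. The designs, under 80 residues and lacking cysteine, were digested in a PA-tagged cDNA display format at 11 threefold-diluted protease concentrations and without protease, and only those with AlphaFold2 dimer inter-PAE above 15 were kept.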
# [2] = folding stability dG unfold from trypsin proteolysis; higher = more stable
# Experimental: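 Folding stability of de novo designed mini-proteins (<80 aa, no Cys; designed by TrROS, TrMRF, ProteinMPNN and the joint model) was measured by cDNA display proteolysis with trypsin and chymotrypsin. Each protease was used at 11 concentrations in a threefold dilution series plus a no-protease condition. K50 was inferred by Bayesian fitting of sequencing counts, and dG unfold was derived against a sequence-predicted unfolded-state K50 (Tsuboyama et al. method). Sequences shown include variable-length N-terminal GS-type padding (SAGGSAGG...) inside a display construct carrying a PA tag. Rows were kept only if the AF2 dimer inter-PAE was >15, to exclude likely homo-oligomers.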
# [3] = folding stability dG unfold from chymotrypsin proteolysis; higher = more stable
# Outline: as §1
Sequence,folding stability dG unfold [1] [kcal/mol],folding stability dG unfold [2] [kcal/mol],folding stability dG unfold [3] [kcal/mol]
SAGGSADELVVRLRVRDPRTERPLEIDLPVPASLTPEEAIARAERLAAAFRSLGLETEVEVEPVPRSAGGSA [r15_268_TrMRF],1.73 ± 0.046,1.45 ± 0.035,1.88 ± 0.042
SAGPKMKPIPFEFRNPDNGHKVKISVYYNPNGKRKIMITNPGDGRIYTFKINPGGIEIEKEIPLDDIKFSAG [r5_619_TrROS],0.83 ± 0.36,1.13 ± 0.13,0.857 ± 0.67
SAMDFPPGSTATIKVEVKNPDNTKTETYEIEVPVDPETGKAITLEDLKEALEKLGVNPENVKIVDIKVGSAG [r14_93_TrMRF],2.72 ± 0.27,3.18 ± 0.22,2.25 ± 0.2
SAGMTIVVEVPKKDITPEELAKKLEERFGLKVVEIKVEEVEEDKVRVTIRFEETGETLELTAEEIKELLSAG [r5_550_TrROS_Hall],4.19 ± 0.16,4.6 ± 0.34,3.81 ± 0.17
SAGGSAGGSAKPQKVELELFPNGELIIRLPETGARIRLKVEVFKDASGNPFFKLEIVDIDPSAGGSAGGSAG [r3_76_TrMRF],2.6 ± 0.16,2.48 ± 0.14,2.66 ± 0.058
SAGGMKVIEVEMTADEVKALVKELAEKDDLKIYIYVDGKKIELTVDEIKKIPPENQKVTIIIEKKKESAGGS [r16_628_TrROS_Hall],3.07 ± 0.28,2.95 ± 0.22,3.11 ± 0.14
SAGQTITFELKDPDITPEELQKKLQKRFGMKPMNIKPVEPDPDGWRFVIEFPENGGTRTFPWEEIRELISAG [r5_550_TrROS],1.03 ± 0.13,0.861 ± 0.11,1.12 ± 0.18
SAGGSAGGSAGMKTSVTTPVTLPDGTPAVVTKYDGEVEIIDTGDGTSKVVPLSEVPPKLLSAGGSAGGSAGG [r11_155_JUSTAS],0.604 ± 0.07,0.678 ± 0.035,0.422 ± 0.076
MEITITETENGYRVEVKIEITVIDPKTGEPVPLEIPVEAFVPASDPDPEKAAKEAAEKALEEVLKALPEGLS [r1_414_JUSTAS],1.99 ± 0.19,2.33 ± 0.21,1.88 ± 0.091
SAGGMSLHIPLPANNEELAEELAEELRDLYAAIPGTPGEVEVDIEPTPEGGYRLIVRFPDHVDEIPASAGGS [r16_356_TrMRF],1.34 ± 0.073,1.3 ± 0.014,1.19 ± 0.11
SAGGGSMEVVKEEVSEEVEVLPNGTVLTTKTITYKTPDGKEYTETVLERVDPVTGKREVIEKKTYPSSAGGS [r16_50_JUSTAS],2.4 ± 0.1,1.59 ± 0.12,2.64 ± 0.045
SAGGGSMLIRRRLLLVERIEDGLLTYDIEEEVYLPLPEPEVPVSVERRPDGSLVLTFPDGTRRLLPRSAGGS [r16_136_JUSTAS],2.01 ± 0.13,1.65 ± 0.077,2.39 ± 0.17
SAGGSAPFPIKISTIRYPDGYIRMEIWIPPDAPIKIKFPNGFEMEVEPVPNGYYRITMYFRIPKEDSAGGSA [r15_523_TrROS],4.53 ± 0.15,3.77 ± 0.094,4.79 ± 0.11
MEVKIKVEIVKVEEVEVKKKKDGKEEKFIRIEIKIEVEAKPGLSEEEIKKLAEELAKKLKELGLEVEVKKES [r1_305_TrROS_Hall],1.96 ± 0.22,0.993 ± 0.091,2.15 ± 0.13
SAGGGMMTLVTLEITIPKPPDPKTGKSRPLPLTLEFEVEADDPEALEERVEEELEKIGIPEEARKLLSAGGS [r16_40_JUSTAS],0.698 ± 0.2,0.471 ± 0.092,0.547 ± 0.16
SAGGGGSMTIVVPVEVSPETSEEEVRKRAEEIARPIAEELGKKVSIEVSREEDPEGGRRWTATITILSAGGS [r16_279_JUSTAS],2.71 ± 0.046,2.88 ± 0.056,2.6 ± 0.017
SAGGSAGGSAGGKDPYLALKTVRVRLVRDYLLGDKPVKTELIEEADVPVLIVFEPEELLSAGGSAGGSAGGS [r10_492_TrMRF],0.441 ± 0.053,0.0714 ± 0.069,0.536 ± 0.086
SAGGSAKKPKWIPIKIKLPGSLEEAREWAEEIAKWLAKQNGDIKIDAIKYERDPNGHVEVTIQVRVSAGGSA [r15_718_TrROS],3.36 ± 0.086,2.36 ± 0.066,3.83 ± 0.059
SAGGSAGGSAMKVLVTVTLTSPDGTKTTLTEEADPAELKGVLEAALPWTVETVTVYPAEELLSAGGSAGGSA [r18_107_JUSTAS],1.04 ± 0.089,1.35 ± 0.051,0.509 ± 0.12
SAGGSAGGSAGMKTVTVTVPPSAGVDAVREALAAQGMTVTSVSREGDTLTVTTEAPPELLSAGGSAGGSAGG [r11_672_JUSTAS],0.024 ± 0.13,-0.866 ± 0.14,0.294 ± 0.08

Sequence,folding stability dG unfold [1] [kcal/mol],folding stability dG unfold [2] [kcal/mol],folding stability dG unfold [3] [kcal/mol]
SAGGSFEVEVEVERYPEENYYYVKIPIRLPNNGKKIPLDVPVPADDPEPAEKWAKFIAKELAKQGISAGGSA [r2_221_TrROS],-0.1 ± 0.23,-0.0866 ± 0.14,-0.1 ± 0.27
SAKITIFFPFDAVKEILDLLKENGVEVNIERHPGNPWYSATITRPDPNGKELPIEIMMFPDHGYVQITLSAG [r14_169_TrROS],2.57 ± 0.13,2.65 ± 0.14,2.62 ± 0.04
SAGGSVTLSAEFTLPDGSRVRLTVEVLPDGTLRVSAEVEAVPLVPPVRVSRLPDGSLVSDPLGVPLVLSAGG [r13_151_TrMRF],1.57 ± 0.15,1.82 ± 0.046,1.31 ± 0.11
SAGGEVKVEIEVELNEDGTLRVRARVEVRVDGELVTVEVEIEVRLEPAPPPAPPPVLVVDPETGEILSAGGS [r8_269_TrROS_Hall],2.7 ± 0.21,3.29 ± 0.2,1.94 ± 0.11
SAGSMKTVVRVEKEVDPSTGKITITEEIEDKVYTTTMDLNPETGDATSTVTYPDSTIGTTTVPISSISSSAG [r5_415_JUSTAS],0.432 ± 0.067,-0.155 ± 0.024,0.706 ± 0.052
SAGGKKETVKVTLEIEVNGKKYKIELTKNKDGTVTIKITDKNGKKIEIEIPMSPEDVKKLLEELLKKLSAGG [r13_296_TrROS_Hall],3.56 ± 0.076,2.17 ± 0.11,3.93 ± 0.094
SAGGSAGGMVIVFDKKNKTIYIYDKKTGKKIEIKVKSIEEAKEAIKKLFPNKKVEIVEVKIFKPSAGGSAGG [r6_286_TrROS_Hall],1.76 ± 0.2,1.43 ± 0.065,1.9 ± 0.09
SAGMKIKVEVKETGETYEIEISEEELKKKLKEKFPEVKEITVVVEDPEDMSEEELREKALKAAEELLKSAGG [r19_298_TrROS_Hall],2.28 ± 0.18,1.59 ± 0.067,2.49 ± 0.051
SAGGSAGGSSVIEVTFSDGSKALFFPGSQKVVVYNPSTKKKIVIPPGVSPETALKAIAEGKPISAGGSAGGS [r12_832_TrMRF],0.671 ± 0.13,0.91 ± 0.056,0.185 ± 0.073
SAGGSEKVTIELEFRNPETGELIATVKIELERLPNGEIKAKIEFTNLPEGVELSEEMKKLLEELLKSAGGSA [r2_7_TrROS_Hall],2.77 ± 0.34,2.5 ± 0.31,2.93 ± 0.19
SAGGEEVKTIKVTLAFYNPETGELVAEVEATATLVDGKLVLTTTVTFRPAPAGEPVTVTVTVVEPEESAGGS [r16_327_TrROS_Hall],3.39 ± 0.24,2.93 ± 0.39,3.63 ± 0.13
SAGGSAVRIKVWPPNGKEQWIPIPSSMTPSTVQEMAENLADDWQEQNGNKNVKVEVDPDNGWIRIRSAGGSA [r15_33_TrROS],-0.0158 ± 0.066,-1.02 ± 0.3,0.197 ± 0.084
SAGGSAGGSAGMVKVKITAPPNASLDAIIKAVKDNGAEIISIERKGNELIIEVEIPEENASAGGSAGGSAGG [r11_672_TrMRF],1.42 ± 0.062,1.54 ± 0.054,1.28 ± 0.046
SAGGIKEFADTLQDHGGTVTVEPVNNGSLKVSIQHRDPEDGRMYRMEIEIPPENNKLEIDDWEPYPNSAGGS [r16_613_TrROS],0.0987 ± 0.21,0.071 ± 0.15,0.31 ± 0.27
SKVKPGEKVEYVEITITVDVKSVEELEKKLRELLGVKEVKVTVTEENGKLTLTIVVKSKEEADKLKELLSSA [r9_764_TrROS_Hall],1.47 ± 0.16,1.22 ± 0.031,1.73 ± 0.066
SAGGSAGGSEYRIELELFRTPEGGLVVPVRIYPPDGGRFEGPASLEELVERFGFSFPPLLELLSAGGSAGGS [r20_235_TrMRF],2.15 ± 0.092,1.58 ± 0.035,2.54 ± 0.12
SAMEVIELEFPSVEELEAALKEKFNVEVEKLPDGTKRIKVEVDGELVLIEITDDKVRIRIISKEELEKLSAG [r14_402_TrROS_Hall],2.42 ± 0.13,3.05 ± 0.095,1.53 ± 0.041
SAGGPPWVRVVDVRIEPVEDGGERRITLTFPPDVTLEEVRERVREMLPPGAEAELTVERVEVRPVLASAGGS [r16_393_JUSTAS],1.49 ± 0.04,1.27 ± 0.016,1.56 ± 0.019
SAGGSAGGSKMLLVKVYVPEFDTVVVFEAPRDITIEEIEERLREAGFSVARIEVVEFDLPEGGSAGGSAGGS [r12_955_TrMRF],3.55 ± 0.071,3.02 ± 0.049,3.766 ± 0.022
SAGGSAGGWFYIMFPIPPGYKVEAEWKFPNGPKVKSEIHPDGPIMITIPPGMANMPDFEIKIEPSAGGSAGG [r6_237_TrROS],3.2 ± 0.15,2.35 ± 0.12,3.77 ± 0.084
